Reference: IntAct's records for PubMed 31515488

B1: Thioredoxin-like protein 4B (Homo sapiens), Q9NX01 (parent)
chain: MSFLLPKLTSKKEVDQAIKSTAEKVLVLRFGRDEDPVCLQLDDILSKTSSDLSKMAAIYLVDVDQTAVYTQYFDISYIPSTVFFFNGQHMKVDYGSPDHTKFVGSFKTKQDFIDLIEVIYRGAMRGKLIVQSPIDPKNIPKYDLLYQDI
B2: Dynein axonemal assembly factor 19 (Homo sapiens), Q8IW40 (parent)
chain: MERNDIINFKALEKELQAALTADEKYKRENAAKLRAVEQRVASYEEFRGIVLASHLKPLERKDKMGGKRTVPWNCHTIQGRTFQDVATEISPEKAPLQPETSADFYRDWRRHLPSGPERYQALLQLGGPRLGCLFQTDVGFGLLGELLVALADHVGPADRAAVLGILCSLASTGRFTLNLSLLSRAERESCKGLFQKLQAMGNPRSVKEGLSWEEQGLEEQSGGLQEEERLLQELLELYQVD
B3: Tuftelin-interacting protein 11 (Homo sapiens), Q9UBB9 (parent)
chain: MSLSHLYRDGEGRIDDDDDERENFEITDWDLQNEFNPNRQRHWQTKEEATYGVWAERDSDDERPSFGGKRARDYSAPVNFISAGLKKGAAEEAELEDSDDEEKPVKQDDFPKDFGPRKLKTGGNFKPSQKGFAGGTKSFMDFGSWERHTKGIGQKLLQKMGYVPGRGLGKNAQGIINPIEAKQRKGKGAVGAYGSERTTQSMQDFPVVDSEEEAEEEFQKELSQWRKDPSGSKKKPKYSYKTVEELKAKGRISKKLTAPQKELSQVKVIDMTGREQKVYYSYSQISHKHNVPDDGLPLQSQQLPQSGKEAKAPGFALPELEHNLQLLIDLTEQEIIQNDRQLQYERDMVVNLFHELEKMTEVLDHEERVISNLSKVLEMVEECERRMQPDCSNPLTLDECARIFETLQDKYYEEYRMSDRVDLAVAIVYPLMKEYFKEWDPLKDCTYGTEIISKWKSLLENDQLLSHGGQDLSADAFHRLIWEVWMPFVRNIVTQWQPRNCDPMVDFLDSWVHIIPVWILDNILDQLIFPKLQKEVENWNPLTDTVPIHSWIHPWLPLMQARLEPLYSPIRSKLSSALQKWHPSDSSAKLILQPWKDVFTPGSWEAFMVKNIVPKLGMCLGELVINPHQQHMDAFYWVIDWEGMISVSSLVGLLEKHFFPKWLQVLCSWLSNSPNYEEITKWYLGWKSMFSDQVLAHPSVKDKFNEALDIMNRAVSSNVGAYMQPGARENIAYLTHTERRKDFQYEAMQERREAENMAQRGIGVAASSVPMNFKDLIETKAEEHNIVFMPVIGKRHEGKQLYTFGRIVIYIDRGVVFVQGEKTWVPTSLQSLIDMAK
partner: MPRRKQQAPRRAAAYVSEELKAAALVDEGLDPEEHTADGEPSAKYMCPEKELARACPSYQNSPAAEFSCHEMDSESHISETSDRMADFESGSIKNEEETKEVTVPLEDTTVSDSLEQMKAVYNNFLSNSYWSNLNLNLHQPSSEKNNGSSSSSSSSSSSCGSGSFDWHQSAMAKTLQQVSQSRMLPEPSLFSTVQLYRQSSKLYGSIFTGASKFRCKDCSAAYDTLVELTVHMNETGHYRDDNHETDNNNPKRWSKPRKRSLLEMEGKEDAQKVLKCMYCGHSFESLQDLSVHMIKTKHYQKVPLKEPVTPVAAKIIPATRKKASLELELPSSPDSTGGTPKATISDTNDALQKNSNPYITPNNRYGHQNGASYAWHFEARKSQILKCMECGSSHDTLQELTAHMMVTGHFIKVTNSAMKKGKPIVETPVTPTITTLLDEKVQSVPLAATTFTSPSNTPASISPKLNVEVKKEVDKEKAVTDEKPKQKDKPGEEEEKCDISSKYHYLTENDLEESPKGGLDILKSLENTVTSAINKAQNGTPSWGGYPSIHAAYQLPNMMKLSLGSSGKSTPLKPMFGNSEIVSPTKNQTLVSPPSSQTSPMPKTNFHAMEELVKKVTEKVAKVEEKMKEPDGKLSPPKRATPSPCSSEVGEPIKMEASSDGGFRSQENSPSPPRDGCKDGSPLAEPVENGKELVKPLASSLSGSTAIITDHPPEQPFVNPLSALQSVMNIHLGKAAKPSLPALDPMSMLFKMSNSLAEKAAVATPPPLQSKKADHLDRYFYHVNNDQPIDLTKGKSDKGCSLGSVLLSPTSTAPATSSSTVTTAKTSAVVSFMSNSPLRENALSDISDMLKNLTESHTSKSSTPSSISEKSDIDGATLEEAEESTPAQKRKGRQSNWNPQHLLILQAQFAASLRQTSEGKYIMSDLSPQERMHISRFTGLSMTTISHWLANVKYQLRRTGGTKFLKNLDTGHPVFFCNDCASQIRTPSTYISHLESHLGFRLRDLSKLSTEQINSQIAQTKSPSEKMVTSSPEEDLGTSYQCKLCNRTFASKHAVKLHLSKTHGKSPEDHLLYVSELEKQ
B4: Forkhead box protein R2 (Homo sapiens), Q6PJQ5 (parent)
chain: MDLKLKDCEFWYSLHGQVPGLLDWDMRNELFLPCTTDQCSLAEQILAKYRVGVMKPPEMPQKRRPSPDGDGPPCEPNLWMWVDPNILCPLGSQEAPKPSGKEDLTNISPFPQPPQKDEGSNCSEDKVVESLPSSSSEQSPLQKQGIHSPSDFELTEEEAEEPDDNSLQSPEMKCYQSQKLWQINNQEKSWQRPPLNCSHLIALALRNNPHCGLSVQEIYNFTRQHFPFFWTAPDGWKSTIHYNLCFLDSFEKVPDSLKDEDNARPRSCLWKLTKEGHRRFWEETRVLAFAQRERIQECMSQPELLTSLFDL
partner: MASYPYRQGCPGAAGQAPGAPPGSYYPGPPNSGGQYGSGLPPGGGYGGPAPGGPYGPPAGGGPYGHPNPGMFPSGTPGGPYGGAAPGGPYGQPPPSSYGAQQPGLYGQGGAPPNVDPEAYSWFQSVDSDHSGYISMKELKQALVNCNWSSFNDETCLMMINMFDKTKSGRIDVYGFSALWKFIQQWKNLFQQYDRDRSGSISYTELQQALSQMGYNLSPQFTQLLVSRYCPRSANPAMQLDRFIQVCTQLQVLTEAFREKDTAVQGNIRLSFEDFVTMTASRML
B5: Keratin, type I cytoskeletal 18 (Homo sapiens), P05783 (parent)
chain: MSFTTRSTFSTNYRSLGSVQAPSYGARPVSSAASVYAGAGGSGSRISVSRSTSFRGGMGSGGLATGIAGGLAGMGGIQNEKETMQSLNDRLASYLDRVRSLETENRRLESKIREHLEKKGPQVRDWSHYFKIIEDLRAQIFANTVDNARIVLQIDNARLAADDFRVKYETELAMRQSVENDIHGLRKVIDDTNITRLQLETEIEALKEELLFMKKNHEEEVKGLQAQIASSGLTVEVDAPKSQDLAKIMADIRAQYDELARKNREELDKYWSQQIEESTTVVTTQSAEVGAAETTLTELRRTVQSLEIDLDSMRNLKASLENSLREVEARYALQMEQLNGILLHLESELAQTRAEGQRQAQEYEALLNIKVKLEAEIATYRRLLEDGEDFNLGDALDSSNSMQTIQKTTTRRIVDGKVVSETNDTKVLRH
B6: Pyruvate dehydrogenase protein X component, mitochondrial (Homo sapiens), O00330 (parent)
chain: MAASWRLGCDPRLLRYLVGFPGRRSVGLVKGALGWSVSRGANWRWFHSTQWLRGDPIKILMPSLSPTMEEGNIVKWLKKEGEAVSAGDALCEIETDKAVVTLDASDDGILAKIVVEEGSKNIRLGSLIGLIVEEGEDWKHVEIPKDVGPPPPVSKPSEPRPSPEPQISIPVKKEHIPGTLRFRLSPAARNILEKHSLDASQGTATGPRGIFTKEDALKLVQLKQTGKITESRPTPAPTATPTAPSPLQATAGPSYPRPVIPPVSTPGQPNAVGTFTEIPASNIRRVIAKRLTESKSTVPHAYATADCDLGAVLKVRQDLVKDDIKVSVNDFIIKAAAVTLKQMPDVNVSWDGEGPKQLPFIDISVAVATDKGLLTPIIKDAAAKGIQEIADSVKALSKKARDGKLLPEEYQGGSFSISNLGMFGIDEFTAVINPPQACILAVGRFRPVLKLTEDEEGNAKLQQRQLITVTMSSDSRVVDDELATRFLKSFKANLENPIRLA
B7: E3 ubiquitin-protein ligase RNF8 (Homo sapiens), O76064 (parent)
chain: MGEPGFFVTGDRAGGRSWCLRRVGMSAGWLLLEDGCEVTVGRGFGVTYQLVSKICPLMISRNHCVLKQNPEGQWTIMDNKSLNGVWLNRARLEPLRVYSIHQGDYIQLGVPLENKENAEYEYEVTEEDWETIYPCLSPKNDQMIEKNKELRTKRKFSLDELAGPGAEGPSNLKSKINKVSCESGQPVKSQGKGEVASTPSDNLDPKLTALEPSKTTGAPIYPGFPKVTEVHHEQKASNSSASQRSLQMFKVTMSRILRLKIQMQEKHEAVMNVKKQTQKGNSKKVVQMEQELQDLQSQLCAEQAQQQARVEQLEKTFQEEEQHLQGLEIAQGEKDLKQQLAQALQEHWALMEELNRSKKDFEAIIQAKNKELEQTKEEKEKMQAQKEEVLSHMNDVLENELQCIICSEYFIEAVTLNCAHSFCSYCINEWMKRKIECPICRKDIKSKTYSLVLDNCINKMVNNLSSEVKERRIVLIRERKAKRLF

Variants of: B1
Settings: with itf2_human TCF4, P15884
Chain of itf2_human TCF4, P15884 (P15884 whole entry): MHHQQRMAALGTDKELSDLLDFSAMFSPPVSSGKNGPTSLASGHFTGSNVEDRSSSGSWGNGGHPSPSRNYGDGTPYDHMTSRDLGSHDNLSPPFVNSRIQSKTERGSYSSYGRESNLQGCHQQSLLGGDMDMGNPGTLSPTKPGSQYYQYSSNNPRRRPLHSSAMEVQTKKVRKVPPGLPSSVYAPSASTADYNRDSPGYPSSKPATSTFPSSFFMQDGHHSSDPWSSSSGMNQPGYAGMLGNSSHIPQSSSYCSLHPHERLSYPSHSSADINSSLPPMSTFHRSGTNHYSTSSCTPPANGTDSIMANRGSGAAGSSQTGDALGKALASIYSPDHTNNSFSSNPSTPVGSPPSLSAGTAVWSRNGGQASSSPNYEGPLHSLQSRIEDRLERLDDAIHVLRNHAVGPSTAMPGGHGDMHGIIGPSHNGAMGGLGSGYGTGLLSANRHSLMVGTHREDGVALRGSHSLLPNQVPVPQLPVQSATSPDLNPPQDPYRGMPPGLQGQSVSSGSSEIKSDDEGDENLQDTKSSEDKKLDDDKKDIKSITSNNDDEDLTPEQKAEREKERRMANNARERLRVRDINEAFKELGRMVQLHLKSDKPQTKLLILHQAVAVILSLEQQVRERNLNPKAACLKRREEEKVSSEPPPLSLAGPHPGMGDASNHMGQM

| Variant | effect of a mutation on the interaction |
| --- | --- |
| I119M | with no effect |

Variants of: B2
Settings: with vac14_human VAC14, Q08AM6
Chain of vac14_human VAC14, Q08AM6 (Q08AM6 whole entry): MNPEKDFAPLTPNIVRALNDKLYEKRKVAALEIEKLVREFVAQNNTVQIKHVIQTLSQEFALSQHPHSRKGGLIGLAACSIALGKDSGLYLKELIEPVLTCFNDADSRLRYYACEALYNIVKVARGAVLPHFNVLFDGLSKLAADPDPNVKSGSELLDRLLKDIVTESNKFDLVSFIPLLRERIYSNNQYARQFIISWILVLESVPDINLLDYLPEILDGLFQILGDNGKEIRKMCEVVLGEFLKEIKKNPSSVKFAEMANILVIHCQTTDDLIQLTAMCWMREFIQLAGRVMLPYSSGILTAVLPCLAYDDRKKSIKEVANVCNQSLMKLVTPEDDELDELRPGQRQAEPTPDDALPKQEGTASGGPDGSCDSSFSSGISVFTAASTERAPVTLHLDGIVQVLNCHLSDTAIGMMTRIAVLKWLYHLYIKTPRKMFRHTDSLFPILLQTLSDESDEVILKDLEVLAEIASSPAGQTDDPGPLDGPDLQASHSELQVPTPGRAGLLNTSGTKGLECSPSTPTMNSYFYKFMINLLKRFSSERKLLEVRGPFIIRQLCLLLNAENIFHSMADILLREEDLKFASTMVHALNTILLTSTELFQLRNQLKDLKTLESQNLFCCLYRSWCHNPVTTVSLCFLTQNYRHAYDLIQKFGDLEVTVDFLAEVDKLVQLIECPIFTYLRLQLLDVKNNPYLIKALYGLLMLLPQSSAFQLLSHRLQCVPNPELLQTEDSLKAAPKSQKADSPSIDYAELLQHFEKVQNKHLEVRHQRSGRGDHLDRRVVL

| Variant | effect of a mutation on the interaction |
| --- | --- |
| H112N | with no effect |
| H154P | with no effect |

Variants of: B2
Settings: with hgs_human HGS

| Variant | effect of a mutation on the interaction |
| --- | --- |
| K27R | with no effect |

Variants of: B3
Settings: with tsh3_human TSHZ3, Q63HK5

| Variant | effect of a mutation on the interaction |
| --- | --- |
| S688L | with no effect |
| R8Q | with no effect |

Variants of: B4
Settings: with pef1_human PEF1, Q9UBV8

| Variant | effect of a mutation on the interaction |
| --- | --- |
| I218F | disrupting interaction strength |
| V286A | with no effect |

Variants of: B5
Settings: with KRT15, P19012
Chain of KRT15, P19012 (P19012 whole entry): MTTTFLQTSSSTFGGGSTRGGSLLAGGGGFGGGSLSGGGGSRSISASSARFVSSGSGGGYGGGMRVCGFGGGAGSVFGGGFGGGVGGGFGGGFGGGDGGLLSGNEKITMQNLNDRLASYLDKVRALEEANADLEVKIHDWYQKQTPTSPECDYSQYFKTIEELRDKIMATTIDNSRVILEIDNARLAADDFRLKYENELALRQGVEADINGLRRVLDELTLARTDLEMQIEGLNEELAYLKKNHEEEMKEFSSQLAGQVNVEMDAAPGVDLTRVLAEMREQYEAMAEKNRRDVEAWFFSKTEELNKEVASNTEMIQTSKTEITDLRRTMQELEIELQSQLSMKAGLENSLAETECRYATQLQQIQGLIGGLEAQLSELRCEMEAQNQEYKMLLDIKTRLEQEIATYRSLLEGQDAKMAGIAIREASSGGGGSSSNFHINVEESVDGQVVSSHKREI

| Variant | effect of a mutation on the interaction |
| --- | --- |
| I150V | with no effect |

Variants of: B6
Settings: with atrap_human AGTRAP

| Variant | effect of a mutation on the interaction |
| --- | --- |
| N270S | with no effect |

Variants of: B7
Settings: with sept3_human SEPTIN3, Q9UH03
Chain of sept3_human SEPTIN3, Q9UH03 (Q9UH03 whole entry): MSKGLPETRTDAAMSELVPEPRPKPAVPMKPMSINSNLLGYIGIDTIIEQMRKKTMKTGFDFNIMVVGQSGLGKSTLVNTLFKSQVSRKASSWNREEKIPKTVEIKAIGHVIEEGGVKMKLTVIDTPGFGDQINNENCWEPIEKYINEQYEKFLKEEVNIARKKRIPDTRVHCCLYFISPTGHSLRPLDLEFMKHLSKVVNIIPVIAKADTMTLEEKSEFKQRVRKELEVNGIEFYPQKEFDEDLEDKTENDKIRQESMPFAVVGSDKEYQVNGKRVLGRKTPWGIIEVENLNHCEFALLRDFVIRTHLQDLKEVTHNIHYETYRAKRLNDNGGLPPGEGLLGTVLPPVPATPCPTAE

| Variant | effect of a mutation on the interaction |
| --- | --- |
| V310L | with no effect |

Variants of: B7
Settings: with wasl_human WASL

| Variant | effect of a mutation on the interaction |
| --- | --- |
| V310L | with no effect |
